# Data reported in the nanobody polyreactivity screen of Harvey et al. (2022).
# Test: yeast display, Sf9 membrane polyspecificity reagent, FACS + sequencing; frameworks hold sequencing errors
# In short: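 Synthetic nanobody libraries on Saccharomyces cerevisiae BJ5465 were galactose-induced for 36–48 hours, stained 1 hour at 4 °C with 10% biotinylated, detergent-solubilized Sf9 membrane reagent and enriched on streptavidin microbeads. FACS then separated cells into low and high (top ~1%) gates by anti-HA (expression) and streptavidin (reagent binding) fluorescence. Genes were colony-PCR amplified, MiSeq 2 × 250 sequenced and CDR-length filtered. A clone's polyreactivity label is that of its gate of origin.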
row,Sequence,polyreactivity (PSR sort gate)
1,QVHLVESGGGLVQAGGSLRLSCAASGLIFYRYAMGWYRQAPGKERELVATISRGGRTYYADSVKGRFTNSRDNAKNTVYLQMNSLKPEDTAVYYCNADRQWYSIGSWEYDYWGQGTQVTVSS,high polyreactivity
2,QVHLVESGGGLVQAGGSLRLSCAASGLIIRYYAMGWYRQAPWKERELVAAITSRGGSTYYADSVKGRFKISRDNAKNTVYLQMNSLKPEDTAVYSCAAGLIFVSRFYVPYDYWGQGTQVTVSS,high polyreactivity
3,QVHLVESGGGLVQAGGSLRLSCAASGLILGHYTMGWYRQAPGKERELVAAITSDGGSTYYADSVMGRFTISRDNAKNTVYLQMNSLKPEDTAVFYCAADLPAYTGYESDYWGQGTQVTGSS,low polyreactivity
4,QVHLVESGGGLVQAGGSLRLSCAASGLPFSQNAMGWNRQAPGKERELVAAINTSDDSTYYADSVKGRFTISRDNAKNTVYLQMNSLKPEDTAVYDCAVDGYWYGGIFYYWGQGTQVTVSS,low polyreactivity
5,QVHLVESGGGLVQAGGSLRLSCAASGLTLNSYVMGWYRQAPGKERELVARITSGGRTNYADSVKGRFTISRDNAKNTVYLQMNSVKPEDTAVYYCAVRSLSYARGGRSDFKVGYWGQGTQVTVSS,low polyreactivity
6,QVHLVESGGGLVQAGGSLRLSCAASGNIIDSNAMGWYRHAPGKERELVAAITWSGGSTYYADSVKGRFTISRDNAKTTVYLPMNSLKPADTAVYYCAAYAQKRYYWGQGTQVTVSS,high polyreactivity
7,QVHLVESGGGLVQAGGSLRLSCAASGNIITSYAMGWYRQAPGKERELVAAISSGGTTHYADSVKGRFTISRDNAKNTVYLQMNSLKPEDTAVYYCAARQVSYYKANDSWVRSEYDYWGQGTQVSVSS,low polyreactivity
8,QVHLVESGGGLVQAGGSLRLSCAASGRIFADYAMGWYRHAPGKERELVAAISSTSSTNYADSVKGRFTISRDNAKNTVYLQMKSLKPEDTAVYYCAATAGSLTADYVSYTYNYWGQGTQVTVSS,low polyreactivity
9,QVHLVESGGGLVQAGGSLRLSCAASGRIFAKNAMGWYRQAPGKERELVAAINHSGGSTYYADSVKGRFTISRDYAKNTVYLQMNSLNPEDTAVYYCDARGLTTRSPFYYWGQGTQVTVSS,high polyreactivity
10,QVHLVESGGGLVQAGGSLRLSCAASGRIFDGYDMGWYRQAPGKERELVAAITSVGSTNYADSVKGRFTISRDNAKNTVYLQMNSLKPEDTAVYYCAAVLYVFDDEYGYLEYFSQYDYWGQGSQVTVSS,low polyreactivity
11,QVHLVESGGGLVQAGGSLRLSCAASGRIFFPNAMGWYRQAPGKERELVAGISIGGSTKYADSVKGRFTISRDNAKNTVYLQMNSLKPEDTAVYYCAAGRGRHTYNYWGQGTQVTVSS,low polyreactivity
12,QVHLVESGGGLVQAGGSLRLSCAASGRIFFTNAMGWYRQAPGKERELVATISSSDGSTYYADSVKGRFTISRDNAKYTVYLQMNSLKPEDTAVYYCAALYSFRGSRQYTYKYYYWGLGTQVTVSS,high polyreactivity
13,QVHLVESGGGLVQAGGSLRLSCAASGRIFGRYAMGWYRQAPGKERELVARITTSGGSTSYADSVKGRFTISRDNAKNTVYLQMNSLKPEDTAVYYCAADRARYYSEYDYWGQGTQVTVSS,low polyreactivity
14,QVHLVESGGGLVQAGGSLRLSCAASGRIFHYYMVWYTQAPGKERELVAVISSGDGTYYADSVKRRFTISRDNAKNTVYLQMNSLKPEDTAVYYCAADAPREYVDHYKYDDDYWGQGTQETVSS,low polyreactivity
15,QVHLVESGGGLVQAGGSLRLSCAASGRIFIYNAMGWYRPPPGKERELVAAINRSGVSTHYADSVKGRFTISRDNAKNTVFLQMNSLKPEDTAVYYCARTVYGARSYDYWGQGTQVTVSS,low polyreactivity
16,QVHLVESGGGLVQAGGSLRLSCAASGRIFRTYAMGWYRQAPGTERELVASITTSSDSPYYADSVKGRFTISRDNAKNTVYLQMNSLKPEDTAVYYCAADGDHPWWSQYDYWGQGTQVTVSS,low polyreactivity
17,QVHLVESGGGLVQAGGSLRLSCAASGRIFVGYAMGWSRQAPGKERELVAASTSGGITNYADSVKGRFTISRDNAKNTVYIQMTSLKPEATAVYYCNVKRRVSGYYGYKDYYWGQGTQVTVSS,high polyreactivity
18,QVHLVESGGGLVQAGGSLRLSCAASGRIFYTNAMGWYRQAPGKERELVAVISWGGDTTYYADSVKGRFTISRDNAKNTVSLQMNSLKPEDTEVYYCAARSKYTHSRQSDYWGQGTQVTVSS,low polyreactivity
19,QVHLVESGGGLVQAGGSLRLSCAASGRNFLYYAMGWYRQAPGKERELVAASTSGDSTYYADSVKGRFTISRDNAKNTVYLQRNSLKPEDTAVYYCNAYQWGGRYWLVTYDYWGQGTLVTVSS,low polyreactivity
20,QVHLVESGGGLVQAGGSLRLSCAASGRTFGPYTMGWYRQAPGTEREVVAAINSSGSRTYYADSVKGRFTISRDNAKNTVYLQMNSLKPEDTAVYYCADEAKWYYSWSYPYEGDYWGQGTQVTVSS,low polyreactivity

row,Sequence,polyreactivity (PSR sort gate)
1,QVHLVESGGGLVQAGGSLRLSCAASGRTFGYYAMGWYRQAPAKERELVAAITSDGRTNYADSVKGRFTISRDNAKNTVYLQMNSLKPEDTAVYYCAAQILGTFYEYDYWGQGTQVTVSS,low polyreactivity
2,QVHLVESGGGLVQAGGSLRLSCAASGRTFIIYAMGWYRPAPGKERELVADISSGGSTYYADSVKGRFTISRDNAKNTVYLQMNIVKPEDTAVYYCAAQSWYFPIGYDYWGQGTQVTVSS,low polyreactivity
3,QVHLVESGGGLVQAGGSLRLSCAASGRTFILNAMGWYRQAPGKERELVAAISWSGGSTYYADSVKGRFTISRDNAKNTVYLQMNSLKPEDTAVYYCAKDSPGDGIGYGYWGQGTQVTVSS,low polyreactivity
4,QVHLVESGGGLVQAGGSLRLSCAASGRTFKHYAMGWYRQEPGKERELVAAITSGGSTYYADSVKGLFTISRDNAKNPVYLQMNSLKPEDTAVYYCNTESFFDTYRRYDSWGQGTQVTVSS,low polyreactivity
5,QVHLVESGGGLVQAGGSLRLSCAASGRTFPGYAMGWYRQAPGKERELVATITFSDGSTYYADSVKGRFTISLDNAKNTVYLQMNSLKPEDTAVYYCNARRSYFLRYGVNYWGQGTQVTVSS,low polyreactivity
6,QVHLVESGGGLVQAGGSLRLSCAASGRTFPYNAMGWYRQAPGKERELVAAISWRGGSTYYADSVKGRFTISRDNAKNTVYLQMNSLKPEDTAVYYCNALYPVSYDHRGDYWGQGTQVTVSS,high polyreactivity
7,QVHLVESGGGLVQAGGSLRLSCAASGRTFQWYAMGWYRQAPGKERELVAAIRYSAGSTYYADSVKGRFTISRDNAKNTVYLQMNSLKPEDTAVYYCAAEPYPYGPYYFLWLRYDYWGQGTHVTVSS,low polyreactivity
8,QVHLVESGGGLVQAGGSLRLSCAASGRTFRRYAMGWYRQAPGKERELVAGISRSGVSTYYADSVKGRFTISRDNAKNTVYLQMNSLKPEDTAVYYCATRYVPTLRSSGDYCGQGTQVTVSS,high polyreactivity
9,QVHLVESGGGLVQAGGSLRLSCAASGRTFRVNAMGWNRKAPGKERELLAAISSRGGTTYYADSVKGRCTISSDYAKNTLYLQMYSLKAEDTAVYYCAAASDRDFPFDYWGQGTQVSVSS,high polyreactivity
10,QVHLVESGGGLVQAGGSLRLSCAASGRTFRYNAMGWYRQAPGKERELVATISSSGGSTSYADSVKGRFTISRDNAKNTVYLQMNSLKPEDTAVYYCNKRRLVAPGNGMDSWGQGTQVTVSS,low polyreactivity
11,QVHLVESGGGLVQAGGSLRLSCAASGRTFSKYAMGWYRPAPGKERELVAAITSRGSSTYYADSVKGRFTISRDYAKNTVYLLMNSLKPEDTAVYYCNAGGYYIRTGWYRSGSDYWGQGTQVTVSS,high polyreactivity
12,QVHLVESGGGLVQAGGSLRLSCAASGRTFVINAMGWYRQAPGKERELVAAITWGGGSTYYADSVKGRFTISRDNAKNTVYLQMNSLKPEDTAVYYCATSYSVQYGGSGYYWGQGTQVTVSS,low polyreactivity
13,QVHLVESGGGLVQAGGSLRLSCAASGRTFVYNAMGWYRQAPGKERELVAAISQSGGSTYYADSVKGRFTISRDNAKNTVYLQMNSLKPEDTAVYYCAARYKTGSYVRYNYWGQGSQVTVSS,high polyreactivity
14,QVHLVESGGGLVQAGGSLRLSCAASGRTFYDYTMGLDRQAPGKERELVAAISQRGGSTYYADSVKGRFTISRDNAKNTVYLQMNSLKPEDTAVYYCAARTSYSGNKYYYWGQGTQVTVSS,high polyreactivity
15,QVHLVESGGGLVQAGGSLRLSCAASGRTFYYYAMGWYRQAPGKERELVAAISGSGTNTYYADSVKGRFTISRDNAKNTVYLQMNRLKPEDTAVYYCAAEYFGFYTDGGVFDLYYWGQGTQVTVSS,low polyreactivity
16,QVHLVESGGGLVQAGGSLRLSCAASGSIFAAYTMGWYRRAPGKERELVAAISVSTVSTYYADSVKGRFTISRDNAKNTVYLQMNSLNPEDTAVYYCNADATDSYPEKDEHDSWGQGTQVTVSS,low polyreactivity
17,QVHLVESGGGLVQAGGSLRLSCAASGSIFALYAMGWYRQAPGKERELVARISYSGGRTYYADSVKGRFTISRDNAKNTVYLQMNSLKPEDTAVYYCATRSFKWSFVGYDYWGQGTQVTVSS,high polyreactivity
18,QVHLVESGGGLVQAGGSLRLSCAASGSIFAYYAMGWYRQAPGKEWEVVAAINWRVGRTYYADSVNGRFTISRDNAKNTVYLQMNSLKPEDTAVYYCAAVYRNQYRGSRFDYWGQGTQVTVSS,high polyreactivity
19,QVHLVESGGGLVQAGGSLRLSCAASGSIFDVNAMGWYRQAPGKERQLVAAISDSGGSTYYADSVKGRFTISRDNAKNTVYLQMNSLKPEDTAVYYCNADWSSYNYYDFDYWGQGTQVTVSS,low polyreactivity
20,QVHLVESGGGLVQAGGSLRLSCAASGSIFGSNAMGWYRQAPGKERELVAAISRRGGNTYYADSVKGRFTISRDNAKNTVYLQLNSLKPEDTAVYYCAAPKDPDRVQYDYWGQGTQVTVSS,low polyreactivity
